Source: PMC10699557 (2023)
Numbered stars: 1 amine (or outer) side, 2 acyl side, 3 side chain; on linkers, the order of the positions; unused ones are H or OH. Bridge positions count the residues as written; N and C are the ends. Primed or numbered codes have the meaning given here. Ends that are not written are not given here. DVP = divinylpyrimidine, c1nc(CC[*:1])cc(CC[*:2])n1; DVT″ = divinyltriazine

Legend:
HumRadA22 [1] = test: ITC
HumRadA22 [2] = test: FP
HumRadA22 [3] = test: ITC; remark: listed apart in the source

| Binder | Kd (HumRadA22 [1]) [nM] | Kd (HumRadA22 [2]) [nM] | Kd (HumRadA22 [3]) [nM] |
| --- | --- | --- | --- |
| GSVNSSAFSGFSTASGKKLNVSCEALQKACKLFSDI (linker 23-30 via DVT″) [SP2, tag-free, stapled with DVT] | 17 |  |  |
| GFSGFSTASGKKLNVSCQALQKACKLFSG (linker 17-24 via DVP) [SP24, tag-free, stapled with DVP] | 21 | 13 |  |
| RRRRRRRRRGCSGFSTASGKKLNVSTQACQKAVKLFSG (stapled (linker not stated for SP31)) [SP31] |  |  | 44 |
| VNSSAFSGFSTASGKKLNVSTEALQKAVKLFSDIENIS [BRC8-2 template] | 4 |  |  |
| GCSGFSTASGKKLNVSTQACQKAVKLFSG (linker 2-20 via DVP (inferred)) [SP30, tag-free, stapled with DVP] | 26 | 13 |  |
